Laboratory results reported in patent US20260085114A1 (KYINNO BIOTECHNOLOGY, published 2026).

Experiments:
[1] = molecular target: T1, human GPRC5D (G protein-coupled receptor class C group 5 member D), on cells (human, UniProt Q9NZD1 1-345); test: FACS on MM.1R multiple myeloma cells
T1 construct: whole, on cells; also called hGPRC5D
Method: (§1) 100 μl of FACS buffer was then added to each FACS tube for resuspension. 5 μl of PE-labeled, anti-murine Fc tagged secondary antibody (Biolegend, catalog number 409304) was added according to instructions, and incubated at 4° C. in the dark for 30 mins. Then 1 ml of FACS buffer was added, and centrifuged at 1200 rpm at room temperature for 5 mins. The supernatant was discarded followed by washing three times.
(§2) The experimental process was as described in Example 4, and the cells used were replaced with multiple myeloma cells MM.1R (Kyinno, catalog number KC-0619) and MOLP8 (Kyinno, catalog number KC-0622). […] Control tube 1 (no antibody and secondary antibody, adding only cell suspension) and Control tube 2 (no antibody, adding only cell suspension and secondary antibody) were included.

[2] = molecular target: T2, human GPRC5B, on 293T cells (human, UniProt Q9NZH0 29-403); test: FACS on 293T-GPRC5B cells, antibody at 2 µg/mL; control tubes 8.55 and 8.26
T2 construct: whole, on cells; also called 293T-GPRC5B
T2 sequence (Q9NZH0 29-403): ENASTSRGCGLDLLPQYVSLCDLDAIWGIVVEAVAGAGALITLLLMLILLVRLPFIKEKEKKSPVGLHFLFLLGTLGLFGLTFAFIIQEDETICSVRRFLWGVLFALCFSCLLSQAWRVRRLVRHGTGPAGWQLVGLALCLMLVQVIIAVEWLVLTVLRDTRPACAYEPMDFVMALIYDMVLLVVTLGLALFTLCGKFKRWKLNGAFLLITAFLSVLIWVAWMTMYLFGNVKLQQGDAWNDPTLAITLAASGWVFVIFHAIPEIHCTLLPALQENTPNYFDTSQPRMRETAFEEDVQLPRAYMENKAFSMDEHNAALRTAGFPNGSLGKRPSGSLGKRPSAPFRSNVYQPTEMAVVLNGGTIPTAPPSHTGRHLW
Method: as §1
(§3) The experimental process was as described in Example 4, cells expressing other members of G protein-coupled receptor class C group 5 as follows were used: 293T cells expressing human GPRC5A, 293T-GPRC5A (Kyinno, catalog number KC-1888), 293T cells expressing human GPRC5B, 293T-GPRC5B (Kyinno, catalog number KC-1854), and 293T cells expressing human GPRC5C, 293T-GPRC5C (Kyinno, catalog number KC-1889). […] Control tube 1 (no antibody and secondary antibody, adding only cell suspension) and Control tube 2 (no antibody, adding only cell suspension and secondary antibody) were included.

[3] = molecular target: T3, human GPRC5D protein (KACTUS, catalog number GPR-HM05P) (human, UniProt Q9NZD1 1-345, limits assumed); test: Fortebio BLI, antibody captured on AHC chip, human GPRC5D protein as analyte
T3 construct: Bought reagent used as analyte in the Fortebio assay; the construct is not described
T3 sequence (Q9NZD1 whole entry): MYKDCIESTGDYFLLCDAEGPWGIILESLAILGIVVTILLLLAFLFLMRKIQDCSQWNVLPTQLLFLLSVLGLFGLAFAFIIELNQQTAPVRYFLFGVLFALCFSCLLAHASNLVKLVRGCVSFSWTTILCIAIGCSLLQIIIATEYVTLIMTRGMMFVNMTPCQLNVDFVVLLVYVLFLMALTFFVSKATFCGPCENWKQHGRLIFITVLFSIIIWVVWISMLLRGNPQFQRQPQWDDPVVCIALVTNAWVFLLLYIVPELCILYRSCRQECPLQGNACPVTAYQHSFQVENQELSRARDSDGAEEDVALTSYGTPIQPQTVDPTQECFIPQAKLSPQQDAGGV
Method: Antibodies to be tested were prepared into solutions at concentration of 10 μg/mL using PBS buffer, and the antibodies were captured using the AHC chip according to Fortebio's instructions. The pre-prepared human GPRC5D proteins (KACTUS, catalog number GPR-HM05P) (protein starting at a highest concentration of 200 nM, 2-fold diluted, 6 gradients) were flowed through the chip, with the following specific conditions: flow rate 30 μl/min; antigen-antibody binding time 200 seconds, dissociation time 500 seconds. The measured results were fitted using the supporting software designed for the device to analyze the affinity between an antibody and an antigen.

[4] = molecular target: T4, human GPRC5A, on 293T cells (human, UniProt Q8NFJ5 1-357); test: FACS on 293T-GPRC5A cells, antibody at 2 µg/mL; control tubes 8.30 and 8.41
T4 construct: whole, on cells; also called 293T-GPRC5A
T4 sequence (Q8NFJ5 whole entry): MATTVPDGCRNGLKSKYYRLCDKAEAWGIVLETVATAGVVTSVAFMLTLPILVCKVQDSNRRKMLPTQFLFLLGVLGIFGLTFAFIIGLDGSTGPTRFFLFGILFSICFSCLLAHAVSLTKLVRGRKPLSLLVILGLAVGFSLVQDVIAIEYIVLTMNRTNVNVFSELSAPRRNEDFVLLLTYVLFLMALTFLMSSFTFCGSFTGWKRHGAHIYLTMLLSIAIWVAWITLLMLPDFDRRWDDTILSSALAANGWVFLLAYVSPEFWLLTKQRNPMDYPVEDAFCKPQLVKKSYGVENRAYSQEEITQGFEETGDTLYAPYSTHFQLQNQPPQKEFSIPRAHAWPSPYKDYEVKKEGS
Method: as §1, §3

[5] = molecular target: T5, monkey (cyno) GPRC5D, on 293T cells (monkey (cyno)); test: FACS on 293T cells expressing monkey (cyno) GPRC5D
T5 construct: whole, on cells; also called monkey GPRC5D
Method: as §1
The experimental process was as described in Example 4. […] Control tube 1 (no antibody and secondary antibody, adding only cell suspension) and Control tube 2 (no antibody, adding only cell suspension and secondary antibody) were included.

[6] = molecular target: T6, human GPRC5C, on 293T cells (human, UniProt Q9NQ84 24-441); test: FACS on 293T-GPRC5C cells, antibody at 2 µg/mL; control tubes 8.86 and 8.73
T6 construct: whole, on cells; also called 293T-GPRC5C
T6 sequence (Q9NQ84 24-441): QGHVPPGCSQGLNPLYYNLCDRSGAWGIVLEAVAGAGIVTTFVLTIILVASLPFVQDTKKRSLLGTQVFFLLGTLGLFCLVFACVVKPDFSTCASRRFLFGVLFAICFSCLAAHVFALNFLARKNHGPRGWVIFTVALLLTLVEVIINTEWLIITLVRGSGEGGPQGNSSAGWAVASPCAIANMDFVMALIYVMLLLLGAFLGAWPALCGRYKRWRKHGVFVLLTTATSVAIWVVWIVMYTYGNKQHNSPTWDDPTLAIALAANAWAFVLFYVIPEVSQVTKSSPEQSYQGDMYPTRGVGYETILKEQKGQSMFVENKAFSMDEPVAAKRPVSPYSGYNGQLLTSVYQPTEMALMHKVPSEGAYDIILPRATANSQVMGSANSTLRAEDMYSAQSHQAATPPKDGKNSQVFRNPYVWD
Method: as §1, §3

[7] = molecular target: T1, human GPRC5D (G protein-coupled …); test: cell-based or functional assay
[8] = molecular target: T1, human GPRC5D (G protein-coupled …); test: FACS on 293T cells expressing human GPRC5D
Method: as §1
Control tube 1 (no antibody and secondary antibody, adding only the cell suspension) and Control tube 2 (no antibody, adding only the cell suspension and the secondary antibody) were included.

[9] = molecular target: T1, human GPRC5D (G protein-coupled …); test: FACS on MOLP8 multiple myeloma cells
Method: as §1, §2

[10] = molecular target: human CD3 protein (KACTUS) (human); test: Fortebio BLI, antibody captured on AHC chip, human CD3 protein as analyte
human CD3 protein (KACTUS) (human), sequence (chain, as listed by the source): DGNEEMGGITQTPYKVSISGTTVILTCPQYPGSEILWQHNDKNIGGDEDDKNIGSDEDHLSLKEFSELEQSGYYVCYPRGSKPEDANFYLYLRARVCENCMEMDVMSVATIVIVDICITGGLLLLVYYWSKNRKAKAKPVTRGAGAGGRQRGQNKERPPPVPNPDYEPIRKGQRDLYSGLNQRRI

[11] = molecular target: T7, Nalm6 cells (NALM6, Kyinno, catalog number KC-0626); test: FACS, hybridoma supernatant on Nalm6 cells
T7 construct: Kept apart from human GPRC5D so that the low MFI values on this line are not laid to the GPRC5D pair

[12] = molecular target: T1, human GPRC5D (G protein-coupled …); test: FACS, hybridoma supernatant on 293T cells expressing human GPRC5D
Method: 293T cells expressing human GPRC5D as described above was prepared into a suspension at concentration of 1×10⁵ cells/ml in PBS containing 2% FBS.
1 ml of FACS buffer was added to each FACS tube, centrifuged at 1200 rpm for 5 mins. The supernatant was discarded followed by washing three times. At the same time, control tube 1 (no supernatant of the culture and the secondary antibody mentioned below, adding only cell suspension) and control tube 2 (no supernatant of the culture, adding only cell suspension and the secondary antibody mentioned below) were included.
as §1

[13] = molecular target: T5, monkey (cyno) GPRC5D, on 293T cells; test: FACS, hybridoma supernatant on 293T cells expressing monkey GPRC5D
Source text: According to the method described in Example 4, the binding between the culture supernatant of the hybridoma cells and monkey GPRC5D was detected, except that the human GPRC5D-expressing cells were replaced with 293T cells expressing monkey GPRC5D (Kyinno, catalog number KC-1586).

[14] = molecular target: T1, human GPRC5D (G protein-coupled …); test: cell ELISA, hybridoma supernatant on fixed BXPC-3 cells expressing human GPRC5D
Method: BXPC-3 cells expressing human GPRC5D (Kyinno, catalog number KC-1717) were prepared into a suspension at concentration of 1×10⁵ cells/ml in PBS containing 2% FBS. The suspension was added to a 96-well plate at 100 μl/well and cultured overnight at 37° C. The wells were cleared of their contents and washed three times with washing solution. 80 μl of 4% tissue fixative (Beyotime, catalog number P0099) was added to each well followed by fixing at room temperature for 15 min, washing twice with PBS and drying. 250 μl of blocking solution containing 2% BSA was added to each well followed by incubation at 37° C. for 1 hr and washing three times with PBS. 50-100 μl of the supernatant of the hybridoma cell culture was added to each well. A positive control (adding serum from fusion mice), a negative control (adding serum from normal mice) and a blank control (adding culture medium) were included. The wells were incubated at 37° C. for 1-2 hrs, washed, and dried. Then, the enzyme-labeled secondary antibody, HRP-labeled goat anti-mouse IgG (SIGMA, catalog number A9044-2 ml) was added at dilution of 1:10000 and 50-100 μl/well. The wells were incubated at 37° C. for 1-2 hrs, washed, and dried. 50-100 μl of freshly prepared developing solution TMB was added to each well and incubated at 37° C. for 10-30 mins.
2 mol/L H₂SO₄ was added to terminate the reaction, and the OD value was read on an enzyme-linked immunosorbent reader.

[15] = molecular target: T1, human GPRC5D (G protein-coupled …); test: FACS, hybridoma supernatant on MM1R cells
[16] = molecular target: T1, human GPRC5D (G protein-coupled …); test: FACS, hybridoma supernatant on OPM2 cells
[17] = molecular target: T1, human GPRC5D (G protein-coupled …); test: FACS, hybridoma supernatant on NCI-H929 cells
Method: as §1

T1 sequence (Q9NZD1 whole entry): as the sequence (Q9NZD1 whole entry) above

B1: humanized antibody 24F5 (hz) (antibody, V domains shown)
VH: QVQLVQSGAEVKKPGASVKVSCKASGYTFPYYVMHWVRQAPGQGLEWIGYINPYNDGTKYNEKFKGRATLTSDKSTSTAYMELSSLRSEDTAVYYCARGGVRRYFDYWGQGTTVTVSS
VL: DIQMTQSPSTLSASVGDRVTITCRASQDIGSNLNWLQQKPGGTIKRLIYATSSLDSGVPSRFSGSRSGSEYTLTISSLQPDDFATYYCLQYATFPYTFGQGTRLEIKR
EC50 [1]: 0.0682 µg/mL | MFI.Max [1]: 177 MFI | FACS result [2]: 8.58 | Kd [3]: 1.36 nM | koff [3]: 5.42e-05 s⁻¹ | kon [3]: 39900 M⁻¹ s⁻¹ | FACS result [4]: 8.45 | EC50 [5]: 0.167 µg/mL | MFI.Max [5]: 3560 MFI | FACS result [6]: 8.97 | ADCC reporter (Jurkat-NFAT-luc-CD16-V158 luciferase), Top [7]: 25.4 | EC50 [8]: 0.7 µg/mL | MFI.Max [8]: 8910 MFI | EC50 [9]: 0.581 µg/mL | MFI.Max [9]: 133 MFI

B2: humanized antibody 6E97 (hz) (antibody, V domains shown)
VH: QVQLVQSGAEVKKPGASVKVSCKASGYTFPYYVIHWVRQAPGQGLEWIGYINPYNAGTKYNEKFKGRATLTSDKSTSTAYMELSSLRSEDTAVYYCARGGVRRYFDYWGQGTTVTVSS
VL: DIQLTQSPSTLSASVGDRVTITCRASQDIGSNLNWLQQKPGGTIKRLISATSSLDSGVPSRFSGSRSGSEYTLTISSLQPDDFATYYCLQYATFPYTFGQGTRLEIKR
EC50 [1]: 0.146 µg/mL | MFI.Max [1]: 246 MFI | FACS result [2]: 8.62 | Kd [3]: 0.458 nM | koff [3]: 2.08e-05 s⁻¹ | kon [3]: 45500 M⁻¹ s⁻¹ | FACS result [4]: 8.54 | EC50 [5]: 0.192 µg/mL | MFI.Max [5]: 6250 MFI | FACS result [6]: 8.78 | ADCC reporter (Jurkat-NFAT-luc-CD16-V158 luciferase), Top [7]: 32.8 | EC50 [8]: 0.351 µg/mL | MFI.Max [8]: 14800 MFI | EC50 [9]: 0.256 µg/mL | MFI.Max [9]: 144 MFI

B3: humanized anti-CD3 antibody SP34V1 (hz) (antibody, V domains shown)
VH: QVQLVESGGGLVKPGGSLRLSCAASGFTFSTYAMNWVRQAPGKGLEWVGRIRSKYNNYATYYADSVKDRFTISRDDAKNSLYLQMNSLRAEDTAVYYCARHGNFGNSYVSYFAYWGQGTTVTVSS
VL: DIQMTQSPSSLSASVGDRVTITCRSSTGAVTTSNYANWVQQKPGKAPKALIGGTNKRAPGVPSRFSGSLSGDDATLTISSLQPEDFATYYCALWYSNLWVFGQGTRLEIKR
Kd [10]: 18 nM | koff [10]: 0.00795 s⁻¹ | kon [10]: 442000 M⁻¹ s⁻¹

B4: humanized antibody 26D1 (hz) (antibody, V domains shown)
VH: QVQLVQSGAEVKKPGASVKVSCKASGYTFTSYTIQWIKQAPGQGLEWIGYIIPSSGYTNYNQKFKDKATLTADKSSNTAYMELSSLTSEDTAVYYCANNYGNWGFTYWGQGTTVTVSS
VL: DIQMTQSPSTLSASVGDRVTITCKASQNVGSAVTWYQQKPGKAPRLLIYSASNRYTGVPDRFSGSGSGTEFTLTISSLQPDDFATYFCQQYSNYPLTFGQGTRLEIKR
EC50 [1]: 0.571 µg/mL | MFI.Max [1]: 185 MFI | FACS result [2]: 8.59 | Kd [3]: 1.7 nM | koff [3]: 3.15e-05 s⁻¹ | kon [3]: 18500 M⁻¹ s⁻¹ | FACS result [4]: 8.46 | MFI.Max [5]: 12.3 MFI | FACS result [6]: 8.89 | ADCC reporter (Jurkat-NFAT-luc-CD16-V158 luciferase), EC50 [7]: 0.0452 µg/mL | ADCC reporter (Jurkat-NFAT-luc-CD16-V158 luciferase), Top [7]: 18.4 | EC50 [8]: 0.228 µg/mL | MFI.Max [8]: 9560 MFI | EC50 [9]: 0.964 µg/mL | MFI.Max [9]: 78 MFI

B5: murine antibody 24F5 (A3 antibody) (antibody, V domains shown)
VH: QVQLKESGPELVKPGASVKISCKASGYTFPYYVMHWVKQKPGQGLEWIGYINPYNDGTKYNEKFKGKAALTSDKSSSTAYMDLSSLTSEDSAVYYCARGGVRRYFDYWGQGTTLTVSS
VL: DIQMTQTPSSLSASLGERVSLTCRASQDIGSNLNWLQQEPDGTIKRLIYATSSLDSGVPKRFSGSRSGSDYSLTISSLESEDFVDYYCLQYATFPYTFGGGTKLEIK
notes: Tested as hybridoma cell culture supernatant; also called murine anti-24F5
MFI.Max [11]: 106 MFI | EC50 [12]: 0.117 µg/mL | MFI.Max [12]: 9520 MFI | EC50 [13]: 0.268 µg/mL | MFI.Max [13]: 6260 MFI | OD value [14]: 1.54 OD | MFI.Max [15]: 991 MFI | EC50 [16]: 5.67 µg/mL | MFI.Max [16]: 1190 MFI | MFI.Max [17]: 1100 MFI

B6: humanized antibody 9D7 (hz) (antibody, V domains shown)
VH: QVQLQESGPGLVKPSETLSLTCTVSGYSITSDYAWNWIRQPPGKGLEWMGYISYSGSATYSPSLKSRITISRDTSKNQFSLKLSSVTAADTAVYYCARGGIAGRGRWGAMDYWGQGTTVTVSS
VL: DIQMTQSPSSLSASVGDRVTITCKASQNVGTNVAWYQQKPGQSPKALIYSASYRDSGVPDRFSGSGSGTDFTLTISSLQPEDFATYYCQQYKSYPLTFGQGTRLEIKR
EC50 [1]: 0.09 µg/mL | MFI.Max [1]: 150 MFI | FACS result [2]: 8.54 | Kd [3]: < 0.001 nM | koff [3]: < 1e-07 s⁻¹ | kon [3]: 22600 M⁻¹ s⁻¹ | FACS result [4]: 8.34 | EC50 [5]: 0.378 µg/mL | MFI.Max [5]: 4260 MFI | FACS result [6]: 8.48 | ADCC reporter (Jurkat-NFAT-luc-CD16-V158 luciferase), Top [7]: 24.5 | EC50 [8]: 0.283 µg/mL | MFI.Max [8]: 8940 MFI | EC50 [9]: 0.313 µg/mL | MFI.Max [9]: 128 MFI
